Test results: the nanobody polyreactivity screen of Harvey et al. (2022)

Assay: yeast display, Sf9 membrane polyspecificity reagent, FACS + sequencing; frameworks hold sequencing errors
In short: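 After 36–48 hours of galactose induction, yeast (Saccharomyces cerevisiae BJ5465) displaying a synthetic nanobody library were stained at 4 °C for 1 hour with 10% biotinylated, detergent-solubilized Sf9 membrane reagent. Streptavidin microbeads enriched the stained cells before FACS sorting into low and high (top ~1%) gates on anti-HA and streptavidin fluorescence. Each clone's polyreactivity label reflects its gate of origin.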

Row | Sequence | polyreactivity (PSR sort gate)
1 | QVQLVESGGGLVQAGGSLRLSCAASGITFYGYAMGWYRQAPGKERELVAAISKSGGSTHYADSVKGRFTISRDNAKNTVYLQMNSLKPEDTAVYYCAAAYWTRLRRMDYWGQGTQVTVSS | low polyreactivity
2 | QVQLVESGGGLVQAGGSLRLSCAASGSIFVRNAMGWCRQAPGKERELVAAITARGGSTYYADSVKGRFTISRDNAKNTVYLQMNSLKPEDTAVYYCARSYYYRGWAQWRYDYWGQGTQVTVSS | high polyreactivity
3 | QVQLVESGGGLVQAGGSLRLSCAASGLTFVKNAMGWYRQAPGKDRELVATISSGGSTNYADSVKGRFTISRDNAKNTVYLQMNSLKPEDTAVYYCNKDITGVLLWIWWDRYDYWGQGTQVTVSS | high polyreactivity
4 | QVQLVESGGGLVQAGGSLRLSCAAAGSTFLRNALGWSRPAPGKKVSWVATISYDGDSTYYADSVKGRFTISRDNAKNTVYLQMNSLKPEDTAVYYCAASYSLTFWDKDDYWGQGTQVTVSS | low polyreactivity
5 | QVQLVESGGGLVQAGGSLRLSCAASGFTFWRNALGWYRQAPGKERELVAAISWRGGSTYYADSVKGRFTISRDNAKNTVSLQINSRKPEDTAGYYCNVVYFRYYSGEYDYGGQGTQVTVSS | high polyreactivity
6 | QVQLVESGGGLVQAGGSLRLSCAASGRIFLKYAMGWYRQAPGKERELVAAISRRGASTYYADSVKGRFTISRDNSKNTVYLQMNSLKPEDTAVYYCKARTSSGMDYWGQGTQVTVSS | high polyreactivity
7 | QVQLVESGGGLVQAGGSLRLSCAASGYTLSLNAMGWYRQAPGKEREFVARISGRGGSTYYADSVKGRFTISRDNAKNTVYLQMNSLKPEDTAVYYCAATWWPWGTDNRGMYYWGQGTQVTVSS | high polyreactivity
8 | QVQLVESGGGLVQAGGSLRLSCAASGFTFPGYVMGWYRQAPGKERELVAAISRSGGRTYYADSVKGRFTISRDNAKNTVYLQMNSQKPDDTAVYYCNTPDPGRDSDYWGQGTQVTVSS | high polyreactivity
9 | QVQLVESGGGLVQAGGSLRLICAASGIIFWAYDMGWYRQAPGKERELVAAITWGGGSTYYADSVKGRFTISRDNAKNTVYLQMNSLKPEDTAVYYCAADRYVFQGYGPEVDYWGQGTQVTVSS | low polyreactivity
10 | QVQLVESGGGLVQAGGSLRLSCAASGNIFQGNAMGWYRQAPGKERELVAAITSDGSTYADSVKGRFTISRDNAKNTVYLQMNSLKPEETAVYYCNADCITSLPVPALDYWGQGTQVTVSS | low polyreactivity
11 | QVQLVESGGGLVQAGGSLRLSCAASGRTFVSNAMGWYRQAPGKERELVARITGSGGTTYYADSVKGRFTISRDNAKNTVYLQMNSLKPEDTAVYYCNADVFRKFGSPSAYKSHRYDYWGQGTQVTVSS | low polyreactivity
12 | QVQLVESGGGLVQAGGSLRLSCAASGRMIKYNTMGWYRQAPGKERELVAAISLSSGSGGGTRYADSVKGRFKISRDNAKNTVYLQMNSLKPEDTAVYYCAARHRYTNEYDYWGQGTQVTVSS | low polyreactivity
13 | QVQLVESGGGIVQAGGSLRLSCAASGSTFDSYAMGWYGQAPGKERELVATISWTGSSTYYADSVKGRFTISRDNAKNTVYLQMNSLKPEDTAVYYCATDQYYEYDYWGQGTQVTVSS | low polyreactivity
14 | QVQLVESGGGLVQAGGSLRLSCAASGRIFYRNAMGWSRQAPGKERELVASITSAGRTYYADSVKGRFTISRDNAKNTVYLQMNSLKPEDTAVYYCAVRVAVLLNLYGYWGQGTQVTVSS | low polyreactivity
15 | QVQLVESGGGIVQAGGSLRLICAASGSTFYPYAMGWYRQAPGKERELVAGISWSGGSTYYADSVKGRFTISRDNAKYTVYLQMNSLKPEDTAVYYCAVDVYWSVIYDYWGQGTQVTVSS | low polyreactivity
16 | QVQLVESGGGLVQAGGSLRLSCAPSGSTFRTYAMGWYRQAPGKERELVAAISSGDNTNYADSVKGRFTISRDNAKNTAYLQMNSLKPEDTAVYYCASRAYRWRSFYTMYYCGQGTQVTVSS | high polyreactivity
17 | QVQLVESGGGLVQAGGSLRLSCAASGRTFRYYAMGWYRQAPGKERELVAAITSGGSTYYADSVKGRFTISRDNAKNTVYLQMNSLKPEDTAVYYCNAFFATGVDYWGQGTQVTVSS | high polyreactivity
18 | QVQLVESGGGLVQAGGSHRFSCGASGSTSTYYAMGCYRQAPGTERELVAAISSGGSTNYADSVKGRFTISRDNAKNTVYLKMNSLKPEETAVYYCATDSGDGEGDYWGQGTQVTVSS | low polyreactivity
19 | QVQLVESGGGLVQAGGSLRLSCAASGFIFITVNAMGWYRQAPGKEREFVAAITRSGTGTYYADSVKGRFTISRDNAKNTVYLQMNSLKPEDTAVYYCAADATSTGAYDYWGQGTQVTVSS | low polyreactivity
20 | QVQLVDSGGGLVQAGGSLRLSCAASGSTFRGNAMGWSRQAPGKERELVAAISASGGRTYYADSVKGRFTISRDNAKNTVYLQMNSLKPEETAVYYCAVRDQTDKVPFYYWGQGTQVSVSS | high polyreactivity
21 | QVQLVESGGGLVQAGGSLRLSCAASGRIFGVYAMGWYRQAPGKERELVAAITRGASTYYADSVKGRFTISRDNAKNTVYLQMNSLKPEDCAVYYCAVSQYRGIYRMDYWGQGTQVTVSS | high polyreactivity
22 | QVQLVESGGGLVQAGGSLRLSCAASGNILEGYTMGWYRQAPGQERELVATISGRGGSTYYADSVKGRFTMSRDNAKNTVYLQMHSLKPEDTAVYYCNALPWALYESTSIYYYWGQGTQVTVSS | low polyreactivity

Row | Sequence | polyreactivity (PSR sort gate)
23 | QVQLVESGGGLVQPGGSLRLIFAASGSIFHYNAIGWYTQAPGKEREFVAVISKSSGSTFYADSVKGRFTISRDNAKNTVYLQMNSLKPEDTAVYYCNLVTKRYPIIGNYWGQGSQVTVSS | high polyreactivity
24 | QVQLVESGGGLVQAGGRLRLSCAASGGTFSSNAMGWYRQSPGKERELVAAITWSGGSTYYADSVKGRFTISRDNAKNTVYLQMNSLKPEDTAVYYCNARNQWRTVGKYDYWGQGTQVTVSS | low polyreactivity
25 | QVQLVESGGGLVQAGGSLRLSCAASGSIFRPYAMGRYRQAPGKERELVAAISWRSGRTYYADSVKGRFTISRDNAKNTVYLQMNSLKPEDTAVYYCAADLASYAYRYDYWGQGTQVTVSS | high polyreactivity
26 | QVQLVESGGGLVQAGGSLRLSCAASGRILFGNMGWYRQAHGKERELVAAISRGTGSTDYADSVKGRFTISRDNAKNTVYLQMNSLKPEDTAVYYCYARSYRVHLHYWRKWEYDYWGQGTQVTVSS | high polyreactivity
27 | QVQLVESGGGLVQAGGSLRLSCAASGSIFKRNAMGWYRQAPGKERELVAAITGGGRTNYADSVKGRFTISRDNAKNTVYLQMNSLNPEDTAVYYCAADWYGVGLYYTWTRHDYWGQGTQVTVSS | low polyreactivity
28 | QVQLVESGGGLFQAGGSLRLSCAASGSIFFENAMGWYRQAPGKEREFVAASTWSAGGRTDYADSVKGRFTISRDNAKTTVYLQMNSLKPEDTAVYYCARYPTNILYIPVRGYTDMDYWGQGTQVTVSW | low polyreactivity
29 | QVQLVESGGGLVQAGGSLRLSCAASGSTYDSNAMGWYRQAPGKERELVAAIDWSGGSTYYADSVKGRFTISRDNAKNTVYLQMNSLKPADTAVYYCAADDSSINYGDFDYWGQGTQVTVSS | low polyreactivity
30 | QVQLVESGGGLVQAGGSHRLSCAASGRIFQRNTMGWYRQAPGKERELVARINYSGGSTYYADSVKGRFTISRDNAKNTVYLQMNSLKPEDTAVYYCAARVWTWSIYYRAGLSSYDYWGQGTQVTVSS | low polyreactivity
31 | QVHLVDSGGGLVQAGCSLPLSCAASGRTFLAYAMGWYRQEPGKERQLVAAISGSGGRSYYADSVKGRFTISRDNAMNTVYLQMNSLKPEDTAVYYCAANVVRWWGDGDYWGQGTQVTVSS | high polyreactivity
32 | QVQQQESGGGLVQAGGILRMSCAASGTIFSEANMGSYRQAPGKERELVATIGQGSTTNYADSVKGRFTISRDNAKNTVYLQMNSLKPEETAVYYCAVVNVDPVGFVYWGQGTQVTVSS | low polyreactivity
33 | QVQLVESGGGLVQAGGSLRLSCAASGRIFKRNTMGWYRQAPGKERELVAAITRSGGSTHYADSVKGRFTISRDNAKNTVYLQMNSLKPEDTAVYYCAVRAAAIDRLAQFDYWGQGTQVTVSS | low polyreactivity
34 | QVQLVESGGGLVQAGGSLRLSCAASGSIFYAYAMGWYRQAPGKERELVAAIRSSDSRTYYADSVKGRFTISRDNAKNTVYLQMNSLKPEDTAVYYCAADGSRKVKFDYWGQGTQVTVSS | high polyreactivity
35 | QVQLVESGGGLVQAGGSLRLSCAASGRIFEDYAMGWYRQAPGKERELVAAISSGGSTYADSVKGRFTISRDNAKNTVYLQMNSLKPEDTAVYYCAAYYRRSTYYYWGQGTQVTVSS | high polyreactivity
36 | QVQLVESGGGLVQAGGSLRLSCAASGRIFKYYTLGWYRQAPGKERELVAAITSRGGTTYYADSVKGRFTISRDNAKNTVYLQMNSLKPEDTAVYDCAKKRVFRHYYYYATYDYWGQGTQVTVSS | low polyreactivity
37 | QVQLVESGGGLVQAGGSLSLTWAASGRTFLEYTMGWYRQAPGKERELVAAISSTGGSTNYADSVKGRFTISRDNAKNSVYLQMNSVKPEDTAVYYCAARLRRRSATSTRMGYWGLGTQVTVSS | high polyreactivity
38 | QVHLVQSGGGIVQEGGSLRISCAASGFTLIHYAMGWYRQAPGKERELVAGITTSGGSTYYADSVKGRFTISRDNAKNTVYLQMKSLKPEDTGVYYCADSSNTRGDYWGQGTQVTVSS | high polyreactivity
39 | QVQLVESGGGLVQAGGSLRLSCAASGITFRSYAMGWYRQAPGKERELVAAISTSGGRTYYADSVKGRFTISRDNAKNTVYLQMNSLKPEDTAVYYCNKVGAVYGYYAYGLGYWGQGTQVTVSS | high polyreactivity
40 | QVQLVESGGGLVQAGGSLRLSCGASGSIFWVYAMGWYRQAPGKERELVAAISNSGSTNYADSVKGRFTISRDNAKNTVYLQMNSLKPADTAVYYCAKDSLVDHVGGYDYWGQGTQVTVSS | low polyreactivity
41 | QVQLVESGGGLVQAGGSLRLSCAASGRIYAMGWYRQAPGKERELVAAISRGGSTYYADSVKGRFTISRDNAKNTVYLQMNSLKPEDTAVYYCARRYASTGYDYWGQGTQVTVSS | high polyreactivity
42 | QVQLVESGGGLVQAGGSLRLSCAASGRTLGRNAMGWYRQAPGKERELVASISSGGSTNYADSVKGRFTISRDNAKNTVYLQMNSLKPEDTAVYYCAAGYFRDYWGQGTQVTVSS | high polyreactivity
43 | QVQLVESGGGLVQAGGSLRLCCAASGSNFRRNAMGLYRQAPGKERELVAAMSWTSTRTYYADSVKVRFTISRDNAKNTVYLQMNSLKPEDTAVYYCAADSNGGGFQLYSYDSGLYYWGQGTQVTVSS | high polyreactivity
